From publication PMC4529466, “Intradermal insulin infusion achieves faster insulin action than subcutaneous infusion for 3-day wear” (Drug Delivery and Translational Research, 2015)

Assay: Postprandial serum insulin aspart pharmacokinetics after meal bolus, 3-day ID vs SC infusion
Assay type: in vivo, human (T1DM patients)
Details: for ΔAUCIns0−1: 0–1 h; for ΔAUCIns0−1 / ΔAUCIns0–1.5 / ΔAUCIns0–2 / ΔAUCIns0–4 / T50_max_falling / T50_max_rising / Tmax / ΔCmax: mean ± SD; for ΔAUCIns0–1.5: 0–1.5 h; for ΔAUCIns0–2: 0–2 h; for ΔAUCIns0–4: 0–4 h; for Intra-subject variability of Tmax: across all study days and breakfast and lunch meals
Description: This was a single center, open-label, two-period crossover study, randomized by infusion order, in T1DM patients on continuous subcutaneous insulin infusion (CSII). The protocol was approved by an independent ethics committee (Ethikkommission der Ärztekammer Nordrhein, Düsseldorf, Germany), appropriate regulatory bodies (German Federal Institute for Drugs and Medical Devices (BfArM)), and conducted in compliance with good clinical practice (GCP), the Declaration of Helsinki, and applicable regulatory requirements.
The study was completed over a multi-week period consisting of three study visits: a screening visit (V1) and two interventional visits (V2 and V3). After establishing eligibility and enrollment, patients received treatment during two interventional visits: one SC and one ID basal/bolus infusion of insulin aspart (NovoRapid® U-100, Novo Nordisk, Copenhagen, Denmark) administered over 3 days in a randomized order.
For each dosing visit, patients arrived the evening prior to the first standardized meal to verify compliance with protocol criteria. An intravenous catheter was inserted into a peripheral vein of the arm for manual blood sampling. Infusion sets, ID (34 G × 1.5 mm length stainless steel microneedle catheter set, BD Technologies, Research Triangle Park, NC) or SC (25 G × 6 mm length soft cannula, Quick-Set, Medtronic Minimed, Northridge, CA), were connected to an insulin infusion pump (Animas® Vibe™, Animas Corporation, West Chester, PA) and primed according to the manufacturer’s instructions. Sets were placed into the patient’s abdomen (periumbilical, left or right) using a customized applicator for the ID set, or the manufacturer recommended inserter for the SC set (customized Sof-serter® and Quick-serter® respectively, both Medtronic Minimed, Northridge, CA). Due to the small adhesive surface on the microneedle catheter, a modified IV dressing (IV3000 1-Hand, Smith & Nephew, England) was used for additional securement over the catheter. A safety loop was used on all catheter lines as recommended by general insulin pump user guidance (Fig. 1c). The respective infusion sets provided all basal and bolus insulin delivery of insulin aspart for the duration of each 72-h study period. A fluid pressure transducer (BD-DTX™ Plus, Becton Dickinson, Franklin Lakes, NJ) was connected in-line between the pump reservoir and each infusion set to monitor infusion delivery pressure, with automated data capture via a commercial data logging system (LORD MicroStrain®, Williston, VT) to provide a secondary post hoc measure of delivery status. The pump/pressure monitoring system combination was contained in a waist pack for the duration of delivery due to its potentially cumbersome size.
After maintaining targeted blood glucose range during the preceding night, bolus insulin doses were administered via the respective infusion catheter prior to standardized breakfast and lunch test meals on each of the three treatment days. Each meal insulin bolus was calculated based on the patient’s insulin sensitivity and previous hours change in BG per sliding scale then delivered immediately prior to breakfast (t = 0 min) and lunch (t = 360 min) consumption. Breakfast was a high glycemic index (60 g carbohydrates) solid meal, and lunch was a mixed meal based on the individual’s calculated daily energy intake and equivalent in caloric composition by day. Breakfast and lunch meals were consumed within 15 min followed by serial blood sampling with BG monitoring for a period of 6 and 4 h, respectively. Patients were asked to remain sedentary for 2 h after meals. Identical study procedures were utilized for the remaining dosing visit days (Fig. 2).
To assess insulin absorption kinetics and glycemic response, blood samples for measurements of insulin aspart and blood glucose in serum were drawn at predefined time points throughout dosing visits. Serial samples for safety BG determination, but not PK analysis, were obtained at a minimum every 2 h. […]

[1] = ID infusion, Day 1, across meals
[2] = ID infusion, Day 2, across meals
[3] = ID infusion, Day 3, across meals
[4] = ID infusion, Days 1–3 combined, across meals, n = 141–156
[5] = SC infusion, Day 1, across meals
[6] = SC infusion, Day 2, across meals
[7] = SC infusion, Day 3, across meals
[8] = SC infusion, Days 1–3 combined, across meals, n = 141–156

## insulin aspart
ID bolus vs SC
  reduction of Tmax compared to the respective SC delivery: greater than 40%
ID bolus vs SC, p < 0.0001
  decrease of T50_max_falling, ID vs SC: ~25%
  decrease of T50_max_rising, ID vs SC: ~ 50%
[1]
  ΔAUCIns0−1: 39.5 ± 31.4 mU*h/L
  ΔAUCIns0–1.5: 56.6 ± 46.4 mU*h/L
  ΔAUCIns0–2: 68.5 ± 59.0 mU*h/L
  ΔAUCIns0–4: 86.9 ± 85.8 mU*h/L
  T50_max_falling: 108 ± 39.2 min
  T50_max_rising: 5.7 ± 2.2 min
  Tmax: 27.6 ± 13.9 min
  ΔCmax: 54.5 ± 42.1 mU/L
[2]
  ΔAUCIns0−1: 43.7 ± 36 mU*h/L
  ΔAUCIns0–1.5: 61.6 ± 54.0 mU*h/L
  ΔAUCIns0–2: 74.0 ± 67.8 mU*h/L
  ΔAUCIns0–4: 92.3 ± 94.5 mU*h/L
  T50_max_falling: 106 ± 32.6 min
  T50_max_rising: 5.8 ± 2.6 min
  Tmax: 29.1 ± 13.3 min
  ΔCmax: 58.6 ± 47.0 mU/L
[3]
  ΔAUCIns0−1: 44.8 ± 37.4 mU*h/L
  ΔAUCIns0–1.5: 62.8 ± 55.6 mU*h/L
  ΔAUCIns0–2: 75.7 ± 71.2 mU*h/L
  ΔAUCIns0–4: 94.4 ± 103 mU*h/L
  T50_max_falling: 107 ± 36.7 min
  T50_max_rising: 6.4 ± 2.3 min
  Tmax: 29.1 ± 12.5 min
  ΔCmax: 61.2 ± 51.5 mU/L
[4]
  ΔAUCIns0−1: 42.5 ± 34.7 mU*h/L
  ΔAUCIns0–1.5: 60.2 ± 51.6 mU*h/L
  ΔAUCIns0–2: 72.5 ± 65.5 mU*h/L
  ΔAUCIns0–4: 91.0 ± 93.5 mU*h/L
  T50_max_falling: 107 ± 36.1 min
  T50_max_rising: 6.0 ± 2.4 min
  Tmax: 28.5 ± 13.2 min
ID infusion, Days 1–3 combined, across meals, baseline corrected, n = 141–156
  ΔCmax: 57.9 ± 46.5 mU/L
ID
  Intra-subject variability of Tmax: 29.6 %CV
ID, across meals and days
  intra-subject Tmax variability measured by %CV: 30%
[5]
  ΔAUCIns0−1: 29.9 ± 25.3 mU*h/L
  ΔAUCIns0–1.5: 45.9 ± 38.9 mU*h/L
  ΔAUCIns0–2: 57.8 ± 50.9 mU*h/L
  ΔAUCIns0–4: 77.4 ± 76.2 mU*h/L
  T50_max_falling: 135 ± 51.1 min
  T50_max_rising: 13.2 ± 7.9 min
  Tmax: 46.0 ± 28.4 min
  ΔCmax: 47.4 ± 37.5 mU/L
[6]
  ΔAUCIns0−1: 30.6 ± 21.1 mU*h/L
  ΔAUCIns0–1.5: 48.7 ± 35.9 mU*h/L
  ΔAUCIns0–2: 62.6 ± 49.6 mU*h/L
  ΔAUCIns0–4: 85.7 ± 82.3 mU*h/L
  T50_max_falling: 143 ± 44.1 min
  T50_max_rising: 12.0 ± 9.5 min
  Tmax: 50.1 ± 19.7 min
  ΔCmax: 47.2 ± 34.8 mU/L
[7]
  ΔAUCIns0−1: 33.6 ± 25.7 mU*h/L
  ΔAUCIns0–1.5: 52.8 ± 42.5 mU*h/L
  ΔAUCIns0–2: 66.7 ± 57.0 mU*h/L
  ΔAUCIns0–4: 87.7 ± 86.9 mU*h/L
  T50_max_falling: 136 ± 39.5 min
  T50_max_rising: 11.2 ± 5.0 min
  Tmax: 47.1 ± 18.3 min
  ΔCmax: 51.5 ± 40.8 mU/L
[8]
  ΔAUCIns0−1: 31.3 ± 24 mU*h/L
  ΔAUCIns0–1.5: 49.0 ± 39.0 mU*h/L
  ΔAUCIns0–2: 62.2 ± 52.3 mU*h/L
  ΔAUCIns0–4: 83.4 ± 81.3 mU*h/L
  T50_max_falling: 138 ± 45.1 min
  T50_max_rising: 12.2 ± 7.7 min
  Tmax: 47.7 ± 22.8 min
SC infusion, Days 1–3 combined, across meals, baseline corrected, n = 141–156
  ΔCmax: 48.7 ± 37.6 mU/L
SC
  Intra-subject variability of Tmax: 36.7 %CV
SC, across meals and days
  intra-subject Tmax variability measured by %CV: 37%
Across days
  Tmax shortening, ID vs SC: ~ 19 min
  time reduction of T50%maxfalling, ID vs SC: ~31 min
  time reduction of T50%maxrising, ID vs SC: ~ 6 min
Across meals and days
  less intra-subject variability (%CV), ID compared to SC: ~ 7%
